Patent US20190040102A1 (CDRD VENTURES, published 2019)
Positions of bridges follow the written chain, without caps; N, C: chain ends. Non-standard residues stand in square brackets, D forms with d. dPhe(4-CONH2) = NC(=O)c1ccc(C[C@@H](N)C(=O)O)cc1; Phe(4-Cl) = N[C@@H](Cc1ccc(Cl)cc1)C(=O)O

B1: Compound 24: H-Cpa-cyclo[D-Cys-Tyr-D-Phe(4-carbamoyl)-Lys(Nε-Me)-Thr-Cys]-D-Tyr-NH2 (peptide)
peptide: H-[Phe(4-Cl)][dC]Y[dPhe(4-CONH2)]K(Me)TC[dY]-NH2
modifications: disulfide 2-7
SMILES: CNCCCC[C@@H]1NC(=O)[C@@H](Cc2ccc(C(N)=O)cc2)NC(=O)[C@H](Cc2ccc(O)cc2)NC(=O)[C@H](NC(=O)[C@@H](N)Cc2ccc(Cl)cc2)CSSC[C@@H](C(=O)N[C@H](Cc2ccc(O)cc2)C(N)=O)NC(=O)[C@H]([C@@H](C)O)NC1=O
B2: Compound 12: H-Cpa-cyclo[D-Cys-Tyr-D-Phe(4-n-pentylamino)-Lys-Thr-Cys]-D-Tyr-NH2 (peptide)
peptide: XXYXKTCX
HELM: PEPTIDE1{[N[C@@H](Cc1ccc(Cl)cc1)C(=O)[*:2]].[dC].Y.[CCCCCNc1ccc(C[C@@H](N[*:1])C(=O)[*:2])cc1].K.T.C.[dY].[am]}$PEPTIDE1,PEPTIDE1,2:R3-7:R3$$$V2.0
SMILES: CCCCCNc1ccc(C[C@H]2NC(=O)[C@H](Cc3ccc(O)cc3)NC(=O)[C@H](NC(=O)[C@@H](N)Cc3ccc(Cl)cc3)CSSC[C@@H](C(=O)N[C@H](Cc3ccc(O)cc3)C(N)=O)NC(=O)[C@H]([C@@H](C)O)NC(=O)[C@H](CCCCN)NC2=O)cc1
B3: Compound 14: H-Cpa-cyclo[DCys-Tyr-D-4-(benzenesulfonyl)Aph-Lys-Thr-Cys]-DTyr-NH2 (peptide)
peptide: XXYXKTCX
HELM: PEPTIDE1{[N[C@@H](Cc1ccc(Cl)cc1)C(=O)[*:2]].[dC].Y.[O=C([C@@H](Cc1ccc(NS(=O)(=O)c2ccccc2)cc1)N[*:1])[*:2]].K.T.C.[dY].[am]}$PEPTIDE1,PEPTIDE1,2:R3-7:R3$$$V2.0
SMILES: C[C@@H](O)[C@@H]1NC(=O)[C@H](CCCCN)NC(=O)[C@@H](Cc2ccc(NS(=O)(=O)c3ccccc3)cc2)NC(=O)[C@H](Cc2ccc(O)cc2)NC(=O)[C@H](NC(=O)[C@@H](N)Cc2ccc(Cl)cc2)CSSC[C@@H](C(=O)N[C@H](Cc2ccc(O)cc2)C(N)=O)NC1=O
B4: Compound 7: H-Cpa-cyclo[DCys-Tyr-D-(4-ureidomethyl)Phe-Lys-Thr-Cys]-DTyr-NH2 (peptide)
peptide: XXYXKTCX
HELM: PEPTIDE1{[N[C@@H](Cc1ccc(Cl)cc1)C(=O)[*:2]].[dC].Y.[NC(=O)NCc1ccc(C[C@@H](N[*:1])C(=O)[*:2])cc1].K.T.C.[dY].[am]}$PEPTIDE1,PEPTIDE1,2:R3-7:R3$$$V2.0
SMILES: C[C@@H](O)[C@@H]1NC(=O)[C@H](CCCCN)NC(=O)[C@@H](Cc2ccc(CNC(N)=O)cc2)NC(=O)[C@H](Cc2ccc(O)cc2)NC(=O)[C@H](NC(=O)[C@@H](N)Cc2ccc(Cl)cc2)CSSC[C@@H](C(=O)N[C@H](Cc2ccc(O)cc2)C(N)=O)NC1=O
B5: Compound 15: H-Cpa-cyclo[D-Cys-Tyr-D-Phe(4-phenylureido)-Lys-Thr-Cys]-D-Tyr-NH2 (peptide)
peptide: XXYXKTCX
HELM: PEPTIDE1{[N[C@@H](Cc1ccc(Cl)cc1)C(=O)[*:2]].[dC].Y.[O=C(Nc1ccccc1)Nc1ccc(C[C@@H](N[*:1])C(=O)[*:2])cc1].K.T.C.[dY].[am]}$PEPTIDE1,PEPTIDE1,2:R3-7:R3$$$V2.0
SMILES: C[C@@H](O)[C@@H]1NC(=O)[C@H](CCCCN)NC(=O)[C@@H](Cc2ccc(NC(=O)Nc3ccccc3)cc2)NC(=O)[C@H](Cc2ccc(O)cc2)NC(=O)[C@H](NC(=O)[C@@H](N)Cc2ccc(Cl)cc2)CSSC[C@@H](C(=O)N[C@H](Cc2ccc(O)cc2)C(N)=O)NC1=O

What was measured:
Assay in all cases: cell-based or functional assay
[1] = biological target: somatostatin receptor SSTR1 (UniProt P30872 1-391)
[2] = biological target: somatostatin receptor type 2 (SSTR2) (UniProt P30874 1-369)
[3] = biological target: somatostatin receptor SSTR3 (UniProt P32745 1-418)
[4] = biological target: somatostatin receptor SSTR4 (UniProt P31391 1-388)
[5] = biological target: somatostatin receptor SSTR5 (UniProt P35346 1-364)
Sequence of somatostatin receptor SSTR5 (P35346 whole entry): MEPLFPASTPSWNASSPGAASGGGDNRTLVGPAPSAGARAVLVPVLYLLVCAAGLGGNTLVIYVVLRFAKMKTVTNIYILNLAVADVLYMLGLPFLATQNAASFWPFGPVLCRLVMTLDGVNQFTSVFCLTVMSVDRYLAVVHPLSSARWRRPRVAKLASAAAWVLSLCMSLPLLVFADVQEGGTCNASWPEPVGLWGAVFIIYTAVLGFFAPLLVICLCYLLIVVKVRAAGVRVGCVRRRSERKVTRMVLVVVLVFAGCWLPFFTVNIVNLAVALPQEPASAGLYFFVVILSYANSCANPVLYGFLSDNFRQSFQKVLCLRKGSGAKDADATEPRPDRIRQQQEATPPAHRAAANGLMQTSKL

Sequence of somatostatin receptor SSTR1 (P30872 whole entry): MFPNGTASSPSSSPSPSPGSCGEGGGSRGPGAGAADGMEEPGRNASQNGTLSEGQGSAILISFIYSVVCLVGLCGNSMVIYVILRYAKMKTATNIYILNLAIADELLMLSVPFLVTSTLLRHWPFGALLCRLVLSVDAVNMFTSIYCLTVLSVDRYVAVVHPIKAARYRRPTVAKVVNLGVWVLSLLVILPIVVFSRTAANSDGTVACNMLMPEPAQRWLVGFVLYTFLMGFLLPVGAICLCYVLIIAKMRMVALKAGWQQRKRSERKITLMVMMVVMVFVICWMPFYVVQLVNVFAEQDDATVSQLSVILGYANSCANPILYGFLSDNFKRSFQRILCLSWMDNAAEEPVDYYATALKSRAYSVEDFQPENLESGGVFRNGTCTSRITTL
Sequence of somatostatin receptor SSTR4 (P31391 whole entry): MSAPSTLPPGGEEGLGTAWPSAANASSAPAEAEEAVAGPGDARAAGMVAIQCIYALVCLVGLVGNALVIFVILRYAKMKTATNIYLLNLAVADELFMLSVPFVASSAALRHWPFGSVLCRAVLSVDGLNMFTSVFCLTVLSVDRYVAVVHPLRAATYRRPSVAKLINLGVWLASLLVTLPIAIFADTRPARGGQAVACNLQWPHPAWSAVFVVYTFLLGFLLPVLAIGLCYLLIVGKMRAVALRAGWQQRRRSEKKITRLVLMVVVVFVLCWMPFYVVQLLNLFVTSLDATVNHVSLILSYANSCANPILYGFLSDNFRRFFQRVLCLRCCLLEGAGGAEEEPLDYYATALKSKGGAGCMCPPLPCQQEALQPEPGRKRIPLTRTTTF
Sequence of somatostatin receptor SSTR3 (P32745 whole entry): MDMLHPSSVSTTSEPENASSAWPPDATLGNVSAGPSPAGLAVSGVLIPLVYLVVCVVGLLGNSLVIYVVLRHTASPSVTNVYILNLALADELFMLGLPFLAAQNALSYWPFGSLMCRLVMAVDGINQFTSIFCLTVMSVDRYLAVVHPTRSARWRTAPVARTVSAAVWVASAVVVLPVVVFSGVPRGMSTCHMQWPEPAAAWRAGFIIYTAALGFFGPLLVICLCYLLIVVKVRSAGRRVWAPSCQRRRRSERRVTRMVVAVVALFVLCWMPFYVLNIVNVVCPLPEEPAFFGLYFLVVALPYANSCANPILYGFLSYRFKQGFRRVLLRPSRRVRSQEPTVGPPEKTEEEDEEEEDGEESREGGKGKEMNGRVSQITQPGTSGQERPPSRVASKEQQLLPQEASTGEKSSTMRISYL
Sequence of somatostatin receptor type 2 (SSTR2) (P30874 whole entry): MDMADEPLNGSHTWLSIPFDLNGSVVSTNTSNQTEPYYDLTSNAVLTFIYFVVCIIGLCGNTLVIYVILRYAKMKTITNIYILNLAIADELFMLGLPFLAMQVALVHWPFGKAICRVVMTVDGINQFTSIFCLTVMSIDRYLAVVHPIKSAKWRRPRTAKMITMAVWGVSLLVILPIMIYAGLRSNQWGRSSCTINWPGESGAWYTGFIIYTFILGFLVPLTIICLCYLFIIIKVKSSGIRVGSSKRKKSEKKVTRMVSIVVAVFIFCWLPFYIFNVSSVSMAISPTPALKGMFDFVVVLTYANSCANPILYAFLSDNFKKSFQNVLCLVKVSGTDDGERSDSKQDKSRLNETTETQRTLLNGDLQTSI

Binder	IC50 (PathHunter β-Arrestin, antagonist mode) [1] [µM]	IC50 (PathHunter β-Arrestin, antagonist mode) [2] [µM]	IC50 (PathHunter β-Arrestin, antagonist mode) [3] [µM]	IC50 (PathHunter β-Arrestin, antagonist mode) [4] [µM]	IC50 (PathHunter β-Arrestin, antagonist mode) [5] [µM]
B1	> 1	0.00096	> 1	> 1	> 1
B2	> 1	0.017	> 1	> 1	> 1
B3	> 1	0.021	> 1	> 1	> 1
B4	> 1	0.031	> 1	> 1	> 1
B5	> 1	0.001	> 1	> 1	> 1
